Source: US20070141139A1, “COMPOSITION FOR INTESTINAL DELIVERY” (priority 2000, published 2007)

Tests used:
coho salmon = details: orally intubated with rbGH and antacid, 7-week trial; cited from earlier work
[1] = cited from earlier work
[2] = in vivo; cited from earlier work
[3] = in vivo; cited from earlier work; remark: listed apart in the source
[4] = in vivo; cited from earlier work; remark: listed apart in the source
salmonids = details: in vivo; cited from earlier work
rainbow trout = assay: Growth of rainbow trout after intraperitoneal injection of recombinant bST; assay type: in vivo, Oncorhynchus mykiss; details: IP, 20 μg bST/g live body weight weekly for 6 weeks; FIG. 4
Protocol: Intraperitoneal (IP) administration dose per fish weekly was 20 μg bST/g live body weight for 6 weeks.

[5] = tested on: proteolytic enzymes, enzyme extract of proximal small intestine; assay: In vitro proteolytic enzyme inhibition by feed ingredients (casein hydrolysis); assay type: biochemical, rainbow trout; details: increasing level of inhibitor inclusion; FIGS. 5-12
Protocol: • 1. Centrifuge Sorvall model • 2. Bench-top blender • 3. Dissecting material (scissors) • 4. Centrifuge bottle • 5. Disposable cuvettes for spectrophotometer • 6. Microcentrifuge tubes 1,5 ml • 7. Spectrophotometer • 8. Vortexer • 9. Microplates reader from Biorad • 10. 50 mM Tris-HCl pH=7.5 • 11. Commassie blue staining solution • 12. BSA (1 mg\ml) standard solution • 13. TCA 20% • 14. Rainbow trouts pancreatic and duodenal tissues • 15. 0.5% casein in 50 mM Tris-HCl pH=9 • 16. 50 mM Tris-HCl+CaCl2 10 mM pH=7.5 Enzyme Extract • 1. Rainbow trout were weighed and sacrificed. • 2. Dissection was performed to remove the proximal small intestine from the fish. • 3. After weighing, the tissues were homogenised in 50 mM Tris-HCl ph=7.5 (1:10 w\v). • 4. Centrifuge at 16000×g for 30 min at 4° C. • 5. Keep the supernatant. Aliquot and store them at −20 C for further use. • 6. Perform Commassie assay to measure the amount of protein present in the enzyme extract. Commassie Blue Stain Protocol • 1. Weigh 160 mg of BSA in 10 ml of […] Tris-HCl pH=7.5. • 2. […] Read at 655 nm with the microplate reader from Biorad. […] Centrifuge at 12000×g for 5 min and read at 280 nm. […] Centrifuge at 12000×g for 5 min and read at 280 nm. […] Centrifuge at 12000×g for 5 min and read at 280 nm. […] Centrifuge at 12000×g for 5 min and read at 280 nm. […] Centrifuge at 12000×g for 5 min and read at 280 nm. […]

## CCCCCCCCC(=O)N(C)C[C@H](O)[C@@H](O)[C@H](O)[C@H](O)CO [Mega-9, reference compound]
Coho salmon
  growth performance compared to fish dosed with GH alone: significantly increases growth performance
[1]; co-delivery with HRP
  plasma HRP presence compared to controls: almost double

## CC[C@@]1([C@@H]2O[C@@H]([C@H]3O[C@@](O)(CO)[C@H](C)C[C@@H]3C)C[C@@H]2C)CC[C@H]([C@]2(C)CC[C@]3(C[C@H](O)[C@@H](C)[C@@H]([C@@H](C)[C@@H](OC)[C@H](C)C(=O)O)O3)O2)O1 [monensin]
[2]
  effect upon HRP absorption: no effect upon HRP absorption

## horseradish peroxidase: tracer protein, horseradish peroxidase type 1 (Sigma)
[3]
  time to transport to the circulation after oral administration: ≤ 1 h

## human growth hormone: human growth hormone given with a suspension of sodium salicylate in oil
[4]
  bioavailability (with reference to intravenous): 10-20%

B1: bovine GH (bGH): bovine growth hormone (protein, UniProt P01246 27-217, looked up)
Somatotropin: AFPAMSLSGLFANAVLRAQHLHQLAADTFKEFERTYIPEGQRYSIQNTQVAFCFSETIPAPTGKNEAQQKSDLELLRISLLLIQSWLGPLQFLSRVFTNSLVFGTSDRVYEKLKDLEEGILALMRELEDGTPRAGQILKQTYDKFDTNMRSDDALLKNYGLLSCFRKDLHKTETYLRVMKCRRFGEASCAF
salmonids
  increase in growth rate: two to three-fold increase in growth rate

B2: recombinant bST: recombinant bovine somatotropin (Monsanto Co.) (protein, UniProt P01246 27-217, looked up)
Somatotropin: B1 Somatotropin
Rainbow trout
  body weight gain: significantly induces increased body weight gain

B3: lyophylized ovalbumin: protease inhibitor component of the Oralject™ cocktail (protein, UniProt P01012 2-386, looked up)
Ovalbumin: GSIGAASMEFCFDVFKELKVHHANENIFYCPIAIMSALAMVYLGAKDSTRTQINKVVRFDKLPGFGDSIEAQCGTSVNVHSSLRDILNQITKPNDVYSFSLASRLYAEERYPILPEYLQCVKELYRGGLEPINFQTAADQARELINSWVESQTNGIIRNVLQPSSVDSQTAMVLVNAIVFKGLWEKAFKDEDTQAMPFRVTEQESKPVQMMYQIGLFRVASMASEKMKILELPFASGTMSMLVLLPDEVSGLEQLESIINFEKLTEWTSSNVMEERKIKVYLPRMKMEEKYNLTSVLMAMGITDVFSSSANLSGISSAESLKISQAVHAAHAEINEAGREVVGSAEAGVDAASVSEEFRADHPFLFCIKHIATNAVLFFGRCVSP
modifications: lyophilized
[5]
  in vitro proteolytic enzyme inhibition: affect to differing degrees the inhibition

B4: spray-dried ovalbumin: protease inhibitor component of the Oralject™ cocktail (protein, UniProt P01012 2-386, looked up)
Ovalbumin: B3 Ovalbumin
modifications: spray-dried
[5]
  in vitro proteolytic enzyme inhibition: affect to differing degrees the inhibition

B5: soya bean trypsin inhibitor: enzyme inhibitor co-delivered with HRP to rainbow trout (protein, UniProt P01070 25-205, looked up)
Trypsin inhibitor A: DFVLDNEGNPLENGGTYYILSDITAFGGIRAAPTGNERCPLTVVQSRNELDKGIGTIISSPYRIRFIAEGHPLSLKFDSFAVIMLCVGIPTEWSVVEDLPEGPAVKIGENKDAMDGWFRLERVSDDEFNNYKLVFCPQQAEDDKCGDIGISIDHDDGTRRLVVSKNKPLVVQFQKLDKESL
[1]; in vivo, po
  oral absorption of HRP: increased
